± gives the uncertainty stated by the source.
Experiment: amyloid nucleation score (Sup35N fusion, yeast selection) (log enrichment); library NNK2; higher = more nucleation; inactive = no reads after selection
Procedure, shortened: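 Sup35N fusions to peptides of 20 random codons were expressed in psi-negative yeast, induced 24 hours with 100 μM copper sulfate, and grown 7 days at 30°C on medium lacking adenine and uracil. Input and output plasmid inserts were sequenced by Illumina. The nucleation score is the DiMSum log enrichment of output over input reads, centred on the mode score of non-aggregating sequences. Sequences with under 100 input reads were excluded.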

Substance | amyloid nucleation score
QRYGVFAYGRLIRIHCRRLG | 0.159 ± 0.29
QSGYVGNGVWVVTVVSKLMC | 6.796 ± 0.037
QSHTGWYLVFV | 0.05 ± 1
QSHTYRL | 1.55 ± 0.25
QSRCGYMGNRH | 0.166 ± 0.76
QSTMDCT | 0.082 ± 1.1
QTGNFPIDHVQYCFFRITLS | -1.28 ± 0.62
QTLMLRSCYNWYPCGAAVVP | 2.5 ± 0.093
QTNCETCVFNNTFELMLHQS | 4.37 ± 0.087
QTNST | 0.526 ± 0.57
QTNTGIVESQRSVCLNKIAR | 0.234 ± 0.17
QTVQVRPVRYGSQSFRNFGW | -0.109 ± 0.49
QVAKAYFEEGRRDDFSYHGK | 0.171 ± 0.56
QVFAHIAVSYGLLFFLHWEC | -0.331 ± 1
QVSSTST | 0.592 ± 0.35
QVSYNLCNR | inactive
QWCYSAVYSMLVSKRL | 2.68 ± 0.078
QWTLVL | -0.599 ± 0.55
QWYPNFHFHAISLCKYTGQG | 0.017 ± 0.19
QYHCPS | -0.616 ± 0.5
QYLVRYLYAITLK | -0.603 ± 1
QYSFKVDKTCRSVH | 0.147 ± 0.76
QYVMERYWRDWFKRMMLLFS | 0.584 ± 0.27
QYVSMKMNLRTR | -0.403 ± 1
RAFIINWALFGTRH | inactive
RAMANHHDDWLVPGFQ | -0.258 ± 0.45

Substance | amyloid nucleation score
RAMLNLKE | 2.46 ± 0.053
RAQYPFDSLSRGSGPVMWLS | 1 ± 0.57
RASVYCFLEHG | 3.42 ± 0.049
RATKYFLSFCSLKFKFCHYF | -0.658 ± 0.32
RAVRDLLVLNIINVAVTSIN | 7.495 ± 0.043
RCCSVAYTIGLLTRRSLATG | 0.451 ± 0.24
RCEVAMDGVESVKSFPA | 0.697 ± 0.35
RCFIDLPCCQYLVQPRVGSG | -0.26 ± 1
RCGVYRVTHSEAERSLSISL | 0.698 ± 0.57
RCIIIAM | 2.88 ± 0.12
RCLGLCFICEYDFGVMRYSA | -0.633 ± 0.48
RCMLKSIRLLSSVGRLHYRW | 0.742 ± 0.48
RCNRSCN | inactive
RCQLRALRCPFMSTVLRCSY | 0.803 ± 0.28
RCSVGVAWEVGKYVIKIRGF | -1.08 ± 0.62
RCVKNKLWTYMGGNISYTSS | 2.14 ± 0.1
RCVWYSGSRLWTYWQVWLMG | 0.458 ± 0.8
RCWWAYQ | 1.11 ± 0.12
RDHYCFYRYRKGEFNNTRHP | -0.147 ± 0.39
RDLSLNFIHPLRFGY | inactive
RDNYEGLY | -1.05 ± 0.74
RDYGQFCRSFGHLGLFLGSQ | inactive
RECQHF | -0.077 ± 0.74
REDLLRNKTLL | -0.858 ± 0.44
RELRQPNK | inactive
RENVVSGHDRNECAGLMSRG | 0.343 ± 0.27

Substance | amyloid nucleation score
RERLL | -0.114 ± 0.51
REVIRGLCMYKARWIRVGVG | 0.947 ± 0.21
REYASILMYRNCMCH | 0.007 ± 0.5
RFCFVTIYSHRGVYANRMGM | 4.31 ± 0.075
RFCRVDKWEVRQGM | 5.339 ± 0.051
RFDDASGDMVNAEG | 4.6 ± 0.05
RFDQGVGTLWHVSLVTE | -0.107 ± 1
RFDSWVAWGFG | 1.74 ± 0.15
RFFHGYFCGIRCRCQAVCQL | inactive
RFFNPNMLKFALSGQ | -1.37 ± 0.44
RFGLISANLLSLDY | -0.938 ± 1.1
RFICYSHTFTGSMLSISIR | 8.061 ± 0.077
RFKDCLIPQWLPGMIKNR | -0.444 ± 0.48
RFKSIWAVNVIWNDYVADNG | 7.835 ± 0.077
RFNFHTSD | -0.959 ± 1.1
RFPCRLLRASLFP | -0.636 ± 0.45
RFQFSICHYYDLNFS | 0.594 ± 0.66
RFQVSLEILSIYRCRTTTD | 3.27 ± 0.15
RFSLRRNCAMAQWLISATCS | 0.37 ± 0.3
RFSYGVEANVMSPINTFLQW | 0.77 ± 0.23
RFTNSESRNYRA | 4.24 ± 0.069
RFVFQIVSIYISWMVIDKTR | -0.436 ± 0.78
RFWLESIWLDNL | 0.25 ± 0.42
RFYCRRT | 0.199 ± 0.33
RGCSESWLSW | 0.079 ± 0.34
RGCSVSTDDSVIRLTIAWQY | 0.33 ± 0.4

Substance | amyloid nucleation score
RGFCN | -1 ± 1.1
RGKDEDMLKSECHYVL | -0.883 ± 0.76
RGLCVGSSARFCVY | 0.691 ± 0.6
RGLRMYERGSVTWSFDFMEG | 5.44 ± 0.077
RGMSAKSTERYVLGIGRAVS | 4.18 ± 0.11
RGPTAHTFSARENP | -0.312 ± 0.45
RGRCPCEVFNGSYVFVTHGD | inactive
RGSSLCYLRKGGFGWQGVVG | 0.733 ± 0.56
RHGGQAAGRVEHVTSGCQRV | 1.54 ± 0.47
RHMLYVGMSHNPRLGPSSLG | 0.511 ± 0.38
RHMWDHFCCFF | 5.28 ± 0.094
RHPMSKKTSYKWYVVLTQCR | 0.554 ± 0.31
RHRSNCMRRSTVSVGNVRES | 0.427 ± 0.23
RHSKFRVITENMIDPFQRS | 0.249 ± 0.64
RHVRMISHELNEDTCYTCIL | -0.536 ± 1.1
RHYLRRCEEDNCHPKYFVRY | -0.439 ± 0.76
RIASLTSLGGNMNCAVHSFE | -0.427 ± 1.1
RIISHDSCRVIFGKFRVDVW | 1.23 ± 0.57
RIKRETHAAFNVYSIYAVRY | 0.183 ± 0.3
RIMISSIELDNCWYILGLSA | inactive
RIRVIIVPALVLA | inactive
RIVQYIELRFTYQRKYNGAG | 3.02 ± 0.057
RIWMLY | 0.42 ± 0.66
RIWSFNGQTFVSNLSVSSVS | -0.773 ± 0.76
RIYFTPRYLDIDFYWTLNAV | -0.598 ± 0.64
RKCQIRVMKNSD | -0.858 ± 1.1

Substance | amyloid nucleation score
RKLLYCCEVATWCRGETSER | 4.33 ± 0.089
RKTLLLKTRACPSPLFWLDT | inactive
RKVRCRYSMT | 0.142 ± 0.6
RKVWLALVIFVCGCFIHYNG | -0.338 ± 0.64
RLALWVKSSYVFIQESEELH | 3.2 ± 0.1
RLCLYN | -1.2 ± 0.38
RLECRLNSEPFYKDWTSSDS | 0.674 ± 0.39
RLEVGGTN | 2.86 ± 0.11
RLFRAFNLCYAAIRVGASPQ | 0.287 ± 0.26
RLGEWECTHQVPFHSRWACG | -0.087 ± 0.76
RLGSSEACPICLDHFGFIMF | -1.26 ± 0.54
RLGYILNFELNYLII | 0.856 ± 0.17
RLIDCVVVRVFINNVMLPAY | 5.45 ± 0.056
RLLAIRIVILYSINCVLSLW | 0.129 ± 0.42
RLLLRALYNPEYSRTQC | -1.43 ± 0.64
RLMSCMFFNADITAPYWSRY | 6.235 ± 0.036
RLPASWLVAPGCRWPCLPRN | 1.78 ± 0.22
RLPTGSQNY | -0.281 ± 0.38
RLRAQSHCAVAAGRNMEPWA | 5.986 ± 0.043
RLRQEYGLLLRRGKSVP | 0.252 ± 0.35
RLSCFMNRGVREDSDSN | -0.766 ± 0.61
RLSSILYYVNHFS | -0.045 ± 0.41
RLVNASEGGMHWANSSEFYA | 0.643 ± 0.24
RLWYHVICVDYDGGEYRSSG | 0.388 ± 0.36
RLYTREQLRTLWLSYMFLRK | -0.357 ± 0.29

— the supplement of paper PMC12042874
